Laboratory results as given in patent US20250011434A1, “ASYMMETRIC BISPECIFIC ANTIBODY (UMG2/CD1A-CD3E) FOR THE IMMUNOLOGICAL TREATMENT OF CORTICAL-DERIVED CD1A-EXPRESSING T-CELL ACUTE LYMPHOBLASTIC LEUKEMIAS (T-ALL)” (UNIVERSITA' DEGLI STUDI MAGNA GRAECIA DI CATANZARO, published 2025).

Target: CD1a (Homo sapiens (Human), UniProt P06126)
Test: titration experiments on cortical, CD1a-expressing T-ALL cell lines (apparent Kd, average)

B1: asymmetric bispecific antibody UMG2/CD1a-CD3ε BTCE (bispecific antibody)
heavy 1: not shown
heavy 2: not shown
light: DIQMTQTTSSLSASLGDRVTISCSASQDISNYLDWYQQKPDGTVRLLIYYTSSLHSGVPSRFSGSGSGTAFSLTIINLEPEDVATYYCHQYSNLPYTFGGGTKLEIKRTVAAPSVFIFPPSDEQLKSGTASVVCLLNNFYPREAKVQWKVDNALQSGNSQESVTEQDSKDSTYSLSSTLTLSKADYEKHKVYACEVTHQGLSSPVTKSFNRGEC
Q: For B1, which Kd is on record?
A: 0.014 µg/mL
